# Measurements reported in publication PMC4347215 (Nature Communications, 2015).
# Columns and labels:
# [1] = target: recombinant CA/09 NA (neuraminidase of A/California/07/2009) (Influenza A virus A/California/07/2009 …, UniProt C3W5S3); assay: BLI; conditions: both partners purified
# [2] = target: NA (CA/09) as antigen of the ELISA of Supplementary Fig. 5 (Influenza A virus A/California/07/2009 …, UniProt C3W6G3, strain); assay: ELISA
# [3] = target: recombinant CA/09 NA, thrombin-cleaved (His-tag depleted) (influenza A virus A/California/07/2009 …, UniProt C3W5S3, N-linked glycans seen at Asn88, Asn146 and Asn235); assay: crystal structure; conditions: both partners purified
binder,measurement,setting,value
"monoclonal antibody CD6 (whole IgG) (antibody, V domains shown, copies: 2 + 2) VH: QVKLQESGGGLVQPKGSLKLSCAASGFTFNTYAMNWVRQAPGKGLEWVARIRSKSNNYATFYADSVKDRFTISRDDSQSMLYLQMHNLKTDDTAMYYCVRPSIYYYASGYLDVWGAGTTVTVSS VL: QIVLSQSPAILSASPGEKVTMTCRTSSSVSYMHWYQQKPGSSPKPWIYATSNLASGVPFRFSGSGSGTSYSLTISRVEAEDAATYYCQQWNSNPPTFGGGTKLEIK",Kd,[1],~95 nM
same,binding result,[2],binds
"CD6 Fab2 (other, F(ab')2 fragment; copies: 2 + 2) VH: QVKLQESGGGLVQPKGSLKLSCAASGFTFNTYAMNWVRQAPGKGLEWVARIRSKSNNYATFYADSVKDRFTISRDDSQSMLYLQMHNLKTDDTAMYYCVRPSIYYYASGYLDVWGAGTTVTVSS VL: QIVLSQSPAILSASPGEKVTMTCRTSSSVSYMHWYQQKPGSSPKPWIYATSNLASGVPFRFSGSGSGTSYSLTISRVEAEDAATYYCQQWNSNPPTFGGGTKLEIK",binding result,[2],binds
"CD6 Fab (Fab, V domains shown) VH: QVKLQESGGGLVQPKGSLKLSCAASGFTFNTYAMNWVRQAPGKGLEWVARIRSKSNNYATFYADSVKDRFTISRDDSQSMLYLQMHNLKTDDTAMYYCVRPSIYYYASGYLDVWGAGTTVTVSS VL: QIVLSQSPAILSASPGEKVTMTCRTSSSVSYMHWYQQKPGSSPKPWIYATSNLASGVPFRFSGSGSGTSYSLTISRVEAEDAATYYCQQWNSNPPTFGGGTKLEIK",stoichiometry N,[3],4 Fabs per NA tetramer
same,binding result,[2],binds
